Laboratory results: paper PMC9064986

Target: Recombinant human BMP10 growth factor (GF)-domain (R&D Systems) (UniProt O95393)
Test: SPR (Biacore)
Details: BMP10 immobilised on a CM5 Biacore chip; parent: 1.35E+05 M-1s-1

Recombinant human BMP10 growth factor (GF)-domain (R&D Systems), sequence (O95393 317-424): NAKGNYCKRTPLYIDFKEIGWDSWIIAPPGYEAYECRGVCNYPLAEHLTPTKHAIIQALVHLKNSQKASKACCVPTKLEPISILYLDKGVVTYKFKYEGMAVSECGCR

kon: 49600 M⁻¹ s⁻¹
Substance: BMPRII extracellular domain (ECD), wild type (from UniProt Q13873-1) ΔGDP (del of Gly, Asp and Pro in the A-loop)
